Values quoted from earlier work as cited in paper PMC3074115.

Experiments:
[1] = biological target: Ferrochelatase (Homo sapiens) (UniProt P22830); assay: ITC
IscU (Escherichia coli) = IscU (Escherichia coli) (UniProt P0ACD4); assay: ITC and SPR
IscU (Escherichia coli), sequence (P0ACD4 whole entry): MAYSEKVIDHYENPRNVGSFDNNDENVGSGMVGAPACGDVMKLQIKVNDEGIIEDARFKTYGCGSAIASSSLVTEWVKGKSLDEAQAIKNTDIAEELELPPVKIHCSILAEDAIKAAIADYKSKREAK

Ferrochelatase (Homo sapiens), sequence (P22830 55-423): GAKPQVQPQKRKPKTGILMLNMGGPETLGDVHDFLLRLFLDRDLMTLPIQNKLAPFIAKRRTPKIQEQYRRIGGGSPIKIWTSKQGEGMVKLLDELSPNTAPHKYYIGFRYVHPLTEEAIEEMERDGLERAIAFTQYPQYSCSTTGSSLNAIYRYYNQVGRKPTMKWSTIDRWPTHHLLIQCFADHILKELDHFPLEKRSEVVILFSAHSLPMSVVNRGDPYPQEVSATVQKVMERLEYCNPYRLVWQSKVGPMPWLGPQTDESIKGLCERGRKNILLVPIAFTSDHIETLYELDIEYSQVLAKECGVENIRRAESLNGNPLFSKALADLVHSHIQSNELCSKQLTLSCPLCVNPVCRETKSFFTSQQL
IscS, sequence (P0A6B7 whole entry): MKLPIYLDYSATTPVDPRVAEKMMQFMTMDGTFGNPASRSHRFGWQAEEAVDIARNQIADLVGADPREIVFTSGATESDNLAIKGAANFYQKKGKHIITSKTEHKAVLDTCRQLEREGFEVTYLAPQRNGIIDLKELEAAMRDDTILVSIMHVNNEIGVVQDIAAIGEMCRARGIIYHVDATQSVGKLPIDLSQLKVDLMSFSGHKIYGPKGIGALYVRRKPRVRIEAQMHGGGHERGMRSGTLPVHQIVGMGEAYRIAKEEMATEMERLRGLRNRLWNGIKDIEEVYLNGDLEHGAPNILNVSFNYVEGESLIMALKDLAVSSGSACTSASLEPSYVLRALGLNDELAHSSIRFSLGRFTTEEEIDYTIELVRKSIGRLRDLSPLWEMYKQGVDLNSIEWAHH

Kd [1] [µM] | Substance | Kd (IscU (Escherichia coli)) [µM]
0.017 | Frataxin (from UniProt Q16595) | –
– | IscS (from UniProt P0A6B7) | 2
